From patent US20060058504A1, “Peptides capable of inducing attraction to the axonal growth and their use for treating neurodegenerative diseases” (Centre National de la Recherche Scientific (CNRS), priority 2002, published 2006)
Changes are numbered by the printed parent chain. Names may count otherwise.

B1: A426D mutant L1Fc chimera (Fc fusion, UniProt P32004 20-1120, looked up)
chain: IQIPEEYEGHHVMEPPVITEQSPRRLVVFPTDDISLKCEASGKPEVQFRWTRDGVHFKPKEELGVTVYQSPHSGSFTITGNNSNFAQRFQGIYRCFASNKLGTAMSHEIRLMAEGAPKWPKETVKPVEVEEGESVVLPCNPPPSAEPLRIYWMNSKILHIKQDERVTMGQNGNLYFANVLTSDNHSDYICHAHFPGTRTIIQKEPIDLRVKATNSMIDRKPRLLFPTNSSSHLVALQGQPLVLECIAEGFPTPTIKWLRPSGPMPADRVTYQNHNKTLQLLKVGEEDDGEYRCLAENSLGSARHAYYVTVEAAPYWLHKPQSHLYGPGETARLDCQVQGRPQPEVTWRINGIPVEELAKDQKYRIQRGALILSNVQPSDTMVTQCEARNRHGLLLANAYIYVVQLPDKILTADNQTYMAVQGSTAYLLCKAFGAPVPSVQWLDEDGTTVLQDERFFPYANGTLGIRDLQANDTGRYFCLAANDQNNVTIMANLKVKDATQITQGPRSTIEKKGSRVTFTCQASFDPSLQPSITWRGDGRDLQELGDSDKYFIEDGRLVIHSLDYSDQGNYSCVASTELDVVESRAQLLVVGSPGPVPRLVLSDLHLLTQSQVRVSWSPAEDHNAPIEKYDIEFEDKEMAPEKWYSLGKVPGNQTSTTLKLSPYVHYTFRVTAINKYGPGEPSPVSETVVTPEAAPEKNPVDVKGEGNETTNMVITWKPLRWMDWNAPQVQYRVQWRPQGTRGPWQEQIVSDPFLVVSNTSTFVPYEIKVQAVNSQGKGPEPQVTIGYSGEDYPQAIPELEGIEILNSSAVLVKWRPVDLAQVKGHLRGYNVTYWREGSQRKHSKRHIHKDHVVVPANTTSVILSGLRPYSSYHLEVQAFNGRGSGPASEFTFSTPEGVPGHPEALHLECQSNTSLLLRWQPPLSHNGVLTGYVLSYHPLDEGGKGQLSFNLRDPELRTHNLTDLSPHLRYRFQLQATTKEGPGEAIVREGGTMALSGISDFGNISATAGENYSVVSWVPKEGQCNFRFHILFKALGEEKGGASLSPQYVSYNQSSYTQWDLQPDTDYEIHLFKERMFRHQMAVKTNGTGRVRLPPAGFATE
notes: not shown: immunoglobulin Fc, human
B2: H210Q mutant L1Fc chimera (Fc fusion, UniProt P32004 20-1120, looked up)
chain: B1 chain with H191Q, D407A
notes: as for B1

Target: T1, wild-type L1Fc chimeric protein (human, UniProt P32004 20-1120)
T1 construct: Produced in COS-7 cells, purified on protein A-Sepharose; in the two-color assay it was held on anti-human IgG coated beads; also called soluble L1; wt; not shown: immunoglobulin Fc, human (cross-linked with anti-human Fc antibodies)
Experiment: two-color FACS bead aggregation, mutant L1Fc beads with wild-type L1Fc beads, mixed aggregates at 30 min
Method: Excess unbound protein was removed by washing with PBS/5% FCS. […] Samples were diluted 1:5000 into ice cold PBS and the proportion of 2 colour aggregates was assessed using a fluorescence activated cell sorter (Becton Dickenson FACSort). […] Every mutant protein was assayed at least 3 separate times and standardised to a wild-type control conducted in parallel.
Mutated L1Fcs were therefore incubated with COS7 cells transfected with full-length wild-type L1 cDNA and binding was assessed by immunofluorescence.

Binder | homophilic binding, percent of wild-type levels
B1 | 74.4 % of wild-type levels
B2 | 90.5 % of wild-type levels
